The source of these data is article PMC6557901, “Rif1 S-acylation mediates DNA double-strand break repair at the inner nuclear membrane”.

In this data set the target is T1, Rif1 NTD (100-1322) C466A/C473A (Saccharomyces cerevisiae, UniProt P29539 100-1322, C466A;C473A).
T1 sequence: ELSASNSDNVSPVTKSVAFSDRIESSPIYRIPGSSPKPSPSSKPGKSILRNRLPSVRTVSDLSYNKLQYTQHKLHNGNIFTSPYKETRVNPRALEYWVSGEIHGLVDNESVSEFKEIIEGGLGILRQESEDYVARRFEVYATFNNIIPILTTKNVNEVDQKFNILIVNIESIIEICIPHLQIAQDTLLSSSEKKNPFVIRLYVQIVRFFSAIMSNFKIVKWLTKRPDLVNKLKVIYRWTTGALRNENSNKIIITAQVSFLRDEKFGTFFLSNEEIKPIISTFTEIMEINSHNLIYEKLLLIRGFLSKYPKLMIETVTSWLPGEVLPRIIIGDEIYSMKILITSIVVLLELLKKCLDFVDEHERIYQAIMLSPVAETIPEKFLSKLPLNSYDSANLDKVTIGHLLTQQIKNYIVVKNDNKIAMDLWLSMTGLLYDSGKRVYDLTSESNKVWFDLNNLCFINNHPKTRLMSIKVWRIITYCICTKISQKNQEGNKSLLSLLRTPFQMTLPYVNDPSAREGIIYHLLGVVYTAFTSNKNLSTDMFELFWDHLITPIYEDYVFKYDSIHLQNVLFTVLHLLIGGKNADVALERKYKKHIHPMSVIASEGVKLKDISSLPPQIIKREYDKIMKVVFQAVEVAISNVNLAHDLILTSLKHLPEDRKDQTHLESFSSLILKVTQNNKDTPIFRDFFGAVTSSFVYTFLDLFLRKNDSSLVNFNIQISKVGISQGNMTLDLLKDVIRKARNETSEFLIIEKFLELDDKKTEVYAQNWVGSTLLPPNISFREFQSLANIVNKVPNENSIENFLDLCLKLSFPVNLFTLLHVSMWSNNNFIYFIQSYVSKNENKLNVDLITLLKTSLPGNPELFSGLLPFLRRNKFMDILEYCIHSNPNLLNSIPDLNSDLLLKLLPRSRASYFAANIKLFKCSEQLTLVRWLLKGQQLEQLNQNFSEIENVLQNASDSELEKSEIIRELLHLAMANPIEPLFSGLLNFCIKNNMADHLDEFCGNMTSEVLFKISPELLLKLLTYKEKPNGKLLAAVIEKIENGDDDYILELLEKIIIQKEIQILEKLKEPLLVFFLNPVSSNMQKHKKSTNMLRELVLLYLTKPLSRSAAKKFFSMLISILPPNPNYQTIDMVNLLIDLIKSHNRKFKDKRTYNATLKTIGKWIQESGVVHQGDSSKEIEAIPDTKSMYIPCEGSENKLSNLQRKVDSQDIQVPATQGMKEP
Nature of the data set: EMSA; protein 10-160 nM, DNA 1 nM; apparent affinity similar to wild-type; 20 mM Tris-HCl pH 8.0, 100 mM NaCl, 2.5 mM MgCl2, 10 mM CaCl2, 0.1 mg/ml BSA, 1 mM TCEP, 30 min at 20 °C; 1.2% agarose gel, 0.5x TBE, 4 °C. The conditions noted are these: protein: recombinant; tags: N-terminal Strep(II); label: 5'-32P on EMSA1; blunt. (Mobility shift assays separate free from complexed probe on a gel.)

B1: 30 bp dsDNA (EMSA1/EMSA2) (dsDNA)
DNA 1: TAGCAAGGCACTGGTAGAATTCGGCAGCGT
DNA 2: ACGCTGCCGAATTCTACCAGTGCCTTGCTA
As to B1, the binding result is on record as “binds”.
